Residue numbers refer to the chain shown, from its start. Values joined by “and” are separate entries in the source; they are usually repeats but may differ in a detail not shown here. Equal values may be shown once.
B1: SC34.71 (antibody, mouse IgG2a, V domains shown)
VH: QVSLKESGPGILQPSQTLSLTCSFFGFSLSTSSMGVGWIRQPSGKGLEWLANIWWDNNKYYNAALKSRLTISKDTSKNQVFLNIASVDTTDTATYYCARIESYYSNRAWFPYWGRGTLVTVSA
VL: DIVMTQSQKFMSTSVGDRVSITCKASQNVRTAVAWYQQKPGQSPKTLIYLASNRHTGVPDRFTGSGSGTDFTLTISYVQSEDLADYFCLQHLNYPWTFGGGTKLEIK
B2: SC34.18 (antibody, mouse IgG2b, V domains shown)
VH: QVSLKESGPGILQPSQTLSLTCSFSGFSLSTSGMGVGWIRQPSGKGLEWLANIWWDDSIYYNTALKSRLTISKDTSKNQVFLKIASVDTADTATYSCARIESYYGNRAWFAYWGQGTLVTVSA
VL: B1 VL with A34G, P59S, Y77N, L92W
B3: SC34.78 (antibody, mouse IgG1, V domains shown)
VH: DVQLQESGRGLVKPSQSLSLTCTVTGYSLTSDFAWNWIRQFPGNKLEWMGYIRYSGTTSYNPSLKSRISITRDTSKNQFFLQLNSVTTEDTATYYCGYGNYGYAMDYWGQGTSVTVSS
VL: DIMMTQSPATLSVTPGDRVSLSCRASQSIGAYLHWYQQKSHESPRLLIKYVSQSISGIPSRFSGSGSGSDFTLSINSVEPEDVGVYYCQNGHSFPLTFGAGTKLELK
B4: SC34.39 (antibody, mouse IgG2a, V domains shown)
VH: QVQLQQSGAELMKPGASVKISCKATGYTFSNYWIEWVKQRPGHGLEWIGEILPGSDSTYFNEKFKGKATFTADTSSNTAYMQLSSLTSEDSAVYYCTIRSAAYYSNPEWFAYWGQGTLVTVSA
VL: QIVLTQSPAIMSASQGERVTMTCTASSSVSSNYLHWYQQKPGSSPKLWIYSTSHLASGVPVRFSGSGSGTSYSLTISSMEAEDAATYYCHQYHRSPYTFGGGTKLEIK
B5: SC34.90 (antibody, mouse IgG2a, V domains shown)
VH: B4 VH with N31Y, S57T, F60Y, S100R
VL: B4 VL with N32S, H54N
B6: SC34.6 (antibody, mouse IgG1, V domains shown)
VH: EVQLQQSGPELVKPGTSMKISCKASGYSFTGYTMNWVKQSHGKNLEWIGLIYPYNDDTRYNRKFKGKATLTVDKSSNTAYMELLSLTSVDSAVCYCARGSYGSPFFDVWGAGTTVTVSS
VL: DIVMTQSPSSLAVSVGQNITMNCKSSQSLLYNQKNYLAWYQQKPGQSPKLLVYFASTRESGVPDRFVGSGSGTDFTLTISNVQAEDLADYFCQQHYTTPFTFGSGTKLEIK
notes: also called SC34.06
B7: SC34.21 (antibody, mouse IgG1, V domains shown)
VH: B6 VH
VL: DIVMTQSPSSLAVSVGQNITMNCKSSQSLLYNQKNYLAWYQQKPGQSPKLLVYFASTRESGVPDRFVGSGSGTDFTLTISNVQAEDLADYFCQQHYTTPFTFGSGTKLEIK
B8: SC34.26 (antibody, mouse IgG2b, V domains shown)
VH: QVQLQQPGAELVKPGASVTLSCKASGYTFTSYYIYWVKQRPGEGLEWIGEINPSNGGPNFNERFKNKATLTVDKSSSTAYMQLSSLTSEDSAVYYCTRGLLYYDYDRGFAYWGQGTLVTVSA
VL: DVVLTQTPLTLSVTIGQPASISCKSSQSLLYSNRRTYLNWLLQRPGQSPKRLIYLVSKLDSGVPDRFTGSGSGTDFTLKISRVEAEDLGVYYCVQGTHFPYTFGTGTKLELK
B9: SC34.53 mouse anti-hDPEP3 antibody (antibody, V domains shown)
VH: B8 VH with N52D, E62D
VL: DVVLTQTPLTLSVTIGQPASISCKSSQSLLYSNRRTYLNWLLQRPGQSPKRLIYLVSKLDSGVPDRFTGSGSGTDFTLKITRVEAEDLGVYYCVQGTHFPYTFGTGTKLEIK
notes: Mouse hybridoma antibody
B10: SC34.38 (antibody, mouse IgG2b, V domains shown)
VH: B8 VH with I34M, P58A, Y94F
VL: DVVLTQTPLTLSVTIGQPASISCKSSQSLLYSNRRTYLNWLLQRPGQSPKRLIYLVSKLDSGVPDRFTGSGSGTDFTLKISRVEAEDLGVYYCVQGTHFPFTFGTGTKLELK

Molecular target: T1, hDPEP3-ECD-His (human, UniProt Q9H4B8 36-463)
T1 construct: also called hDPEP3-His; monomeric hDPEP3-His antigen; not shown: histidine tag
T1 sequence: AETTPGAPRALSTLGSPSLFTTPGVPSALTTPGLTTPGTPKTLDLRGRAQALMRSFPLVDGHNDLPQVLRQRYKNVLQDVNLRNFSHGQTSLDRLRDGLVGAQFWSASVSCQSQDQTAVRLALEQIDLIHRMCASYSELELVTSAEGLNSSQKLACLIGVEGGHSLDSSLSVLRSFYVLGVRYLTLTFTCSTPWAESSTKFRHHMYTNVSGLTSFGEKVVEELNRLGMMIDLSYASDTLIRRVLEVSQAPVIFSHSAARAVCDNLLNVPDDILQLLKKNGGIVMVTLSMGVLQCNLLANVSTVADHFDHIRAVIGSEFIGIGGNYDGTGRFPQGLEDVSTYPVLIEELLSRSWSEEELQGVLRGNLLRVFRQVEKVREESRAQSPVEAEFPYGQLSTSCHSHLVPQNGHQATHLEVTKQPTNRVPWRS
Assay: BLI ForteBio RED, 200 nM hDPEP3-His, estimated grade
Experimental: The affinity of the antibodies for hDPEP3-His was qualitatively determined from kinetics curves generated with a ForteBio RED as follows. Anti-DPEP3 antibodies were immobilized onto anti-mouse Fc capture biosensors with a contact time of 3 mins. and a flow rate of 1000 rpm. The captured antibody loading from baseline was constant at 0.3-1 units. Following antibody capture and 30 second baseline, the biosensors were dipped into a 200 nM solution of hDPEP3-His for a 4 min. association phase followed by a 3 min. dissociation phase at a shaking rate of 1000 rpm. The biosensors were regenerated by dipping into 10 mM glycine, pH 1.7 following each cycle. The data was processed by subtracting a control mouse IgG surface response from the specific antibody response and data was truncated to the association and dissociation phase. The association and dissociation curves were used to qualitatively estimate the affinities of selected antibodies. […] A designation of “ND” means that the estimated KD was not determined.

Kd | Binder
< 5 nM | B1
< 5 nM | B2
> 10 nM | B3
< 5 nM | B4
≥ 5 nM and ≤ 10 nM | B5
< 5 nM | B6
< 5 nM | B7
> 10 nM | B8
≥ 5 nM and ≤ 10 nM | B9
< 5 nM | B10

Molecular target: T2, mDPEP3 (limits assumed)
T2 construct: also called mouse DPEP3-His; mouse DPEP3 ECD with histidine tag
T2 single chain: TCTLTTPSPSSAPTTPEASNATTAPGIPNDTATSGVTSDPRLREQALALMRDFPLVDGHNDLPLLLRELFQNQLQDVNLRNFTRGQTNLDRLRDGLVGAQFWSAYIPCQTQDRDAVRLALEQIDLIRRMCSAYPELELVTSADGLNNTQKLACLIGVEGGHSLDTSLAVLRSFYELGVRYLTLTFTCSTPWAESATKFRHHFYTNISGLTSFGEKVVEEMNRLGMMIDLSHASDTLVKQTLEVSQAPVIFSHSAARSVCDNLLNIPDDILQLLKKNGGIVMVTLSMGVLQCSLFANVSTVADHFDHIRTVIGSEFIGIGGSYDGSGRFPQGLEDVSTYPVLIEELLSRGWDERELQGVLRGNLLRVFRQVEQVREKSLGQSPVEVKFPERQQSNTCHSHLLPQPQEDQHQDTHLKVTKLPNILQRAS
Assay: ELISA, coated antigen
Experimental: (§1) The anti-DPEP3 antibodies were screened by ELISA for cross-reactivity with mouse, rat and cynomolgus DPEP3 and for cross reactivity to hDPEP2, the closest DPEP3 family member. ELISA was conducted as follows. Plates were coated with purified mouse, rat or cynomolgus DPEP3-His or hDPEP2-His at 0.3 μg/mL in 0.2 M carbonate-bicarbonate buffer, pH 9.4 overnight at 4° C. The protein solution was removed and the wells were blocked with 1% (w/v) BSA in PBS (PBSA), 100 μL/well for 1 hour at 37° C. Anti-DPEP3 antibody or a mouse isotype control antibody was then added at 1 μg/mL in 50 μL PBSA for 1 hour at room temperature. After washing with water, 50 μL/well HRP-labeled goat anti-mouse IgG antibody diluted 1:10,000 in PBSA was added for 30 min at room temperature. The plates were washed and developed by the addition of 40 μL/well of the TMB substrate solution (Thermo Scientific) at room temperature. An equal volume of 0.2 M H₂SO₄ was added to stop substrate development. The samples were then analyzed by spectrophotometer at OD 450. […] The cross reactivity results for exemplary DPEP3-specific antibodies can be seen in FIG. 4.

binding result | Binder
no binding (tested: 1 ug/mL) | B1
no binding (tested: 1 ug/mL) | B2
no binding (tested: 1 ug/mL) | B3
no binding (tested: 1 ug/mL) | B4
no binding (tested: 1 ug/mL) | B5
no binding (tested: 1 ug/mL) | B6
no binding (tested: 1 ug/mL) | B7
no binding (tested: 1 ug/mL) | B8
no binding (tested: 1 ug/mL) | B9
no binding (tested: 1 ug/mL) | B10

Molecular target: T3, hDPEP2 ECD with histidine tag (human, UniProt Q9H4A9 33-463)
T3 construct: also called hDPEP2-His; not shown: histidine tag
Assay: ELISA, coated antigen
Experimental: as §1

T3 sequence (Q9H4A9 33-463): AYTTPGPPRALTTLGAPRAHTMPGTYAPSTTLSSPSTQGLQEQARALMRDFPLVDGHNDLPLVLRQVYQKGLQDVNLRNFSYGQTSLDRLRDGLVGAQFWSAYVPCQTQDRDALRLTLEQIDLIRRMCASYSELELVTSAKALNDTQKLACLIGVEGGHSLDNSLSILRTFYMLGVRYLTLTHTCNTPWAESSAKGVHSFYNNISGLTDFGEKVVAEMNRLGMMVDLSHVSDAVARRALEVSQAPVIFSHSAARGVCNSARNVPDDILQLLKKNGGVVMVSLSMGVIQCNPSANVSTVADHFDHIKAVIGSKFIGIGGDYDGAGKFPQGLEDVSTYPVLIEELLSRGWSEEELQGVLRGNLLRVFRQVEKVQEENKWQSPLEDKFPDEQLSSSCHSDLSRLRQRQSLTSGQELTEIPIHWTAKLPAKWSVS

binding result | Binder
no binding (tested: 1 ug/mL) | B1
no binding (tested: 1 ug/mL) | B2
no binding (tested: 1 ug/mL) | B3
no binding (tested: 1 ug/mL) | B4
no binding (tested: 1 ug/mL) | B5
no binding (tested: 1 ug/mL) | B6
no binding (tested: 1 ug/mL) | B7
no binding (tested: 1 ug/mL) | B8
no binding (tested: 1 ug/mL) | B9
no binding (tested: 1 ug/mL) | B10

Molecular target: T4, rat DPEP3 ECD with histidine tag (rat, UniProt Q5U2X4 36-459, limits assumed)
T4 construct: also called rDPEP3-His; ratDPEP3-His; not shown: histidine tag
T4 sequence: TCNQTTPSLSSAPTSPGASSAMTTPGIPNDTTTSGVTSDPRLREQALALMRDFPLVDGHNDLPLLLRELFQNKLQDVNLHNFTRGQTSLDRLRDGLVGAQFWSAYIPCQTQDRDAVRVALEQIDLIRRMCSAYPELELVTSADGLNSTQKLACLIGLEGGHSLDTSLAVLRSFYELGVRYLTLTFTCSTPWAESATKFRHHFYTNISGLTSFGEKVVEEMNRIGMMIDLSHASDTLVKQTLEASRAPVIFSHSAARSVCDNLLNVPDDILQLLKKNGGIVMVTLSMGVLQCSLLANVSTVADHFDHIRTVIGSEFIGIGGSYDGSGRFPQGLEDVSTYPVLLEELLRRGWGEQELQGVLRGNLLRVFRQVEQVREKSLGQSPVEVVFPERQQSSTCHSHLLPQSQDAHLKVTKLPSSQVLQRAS
Assay: ELISA, coated antigen
Experimental: as §1

binding result | Binder
no binding (tested: 1 ug/mL) | B1
no binding (tested: 1 ug/mL) | B2
no binding (tested: 1 ug/mL) | B3
no binding (tested: 1 ug/mL) | B4
no binding (tested: 1 ug/mL) | B5
no binding (tested: 1 ug/mL) | B6
no binding (tested: 1 ug/mL) | B7
no binding (tested: 1 ug/mL) | B8
no binding (tested: 1 ug/mL) | B9
no binding (tested: 1 ug/mL) | B10

Molecular target: T5, cDPEP3 (Macaca fascicularis, UniProt Q4R7M2)
T5 construct: extracellular domain; also called cynomolgus DPEP3-His; cynomolgus DPEP3 ECD with histidine tag
T5 sequence (single chain, looked up): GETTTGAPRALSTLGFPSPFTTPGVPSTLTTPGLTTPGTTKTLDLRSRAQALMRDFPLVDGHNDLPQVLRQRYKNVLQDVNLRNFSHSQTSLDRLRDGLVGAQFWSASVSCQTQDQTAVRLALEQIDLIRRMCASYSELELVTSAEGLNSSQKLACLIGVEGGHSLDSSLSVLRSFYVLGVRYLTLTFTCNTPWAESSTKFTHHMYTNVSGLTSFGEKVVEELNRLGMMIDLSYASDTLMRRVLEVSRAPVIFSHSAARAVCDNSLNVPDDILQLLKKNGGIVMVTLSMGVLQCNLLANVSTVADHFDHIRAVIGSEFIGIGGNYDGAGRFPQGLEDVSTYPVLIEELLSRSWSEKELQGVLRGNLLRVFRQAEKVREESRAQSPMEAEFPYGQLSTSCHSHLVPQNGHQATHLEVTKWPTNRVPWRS
Assay: ELISA, coated antigen
Experimental: as §1

binding result | Binder
no binding (tested: 1 ug/mL) | B1
no binding (tested: 1 ug/mL) | B2
no binding (tested: 1 ug/mL) | B3
no binding (tested: 1 ug/mL) | B4
no binding (tested: 1 ug/mL) | B5
no binding (tested: 1 ug/mL) | B6
no binding (tested: 1 ug/mL) | B7
no binding (tested: 1 ug/mL) | B8
no binding (tested: 1 ug/mL) | B9
no binding (tested: 1 ug/mL) | B10
